B1: NLV3 TCR beta chain (CDR3β only) (parent)
chain: ASSPTGGSPSPLH

Variants of: B1
Assay: T-Switch: Jurkat TCRβ−/− cells expressing a CDR3 saturation-mutagenesis library, stained with two peptide-HLA-A*02:01 tetramers (original and novel peptide) plus anti-CD3, FACS-sorted into four gates, gDNA sequenced
Conditions: tetramers 1 µg/mL, 30 min on ice, SP, DP and SW gates expanded about 10 days between rounds ('two to three rounds of selection' in the Methods), unresolved parent, parent is a CDR3 fragment, scale: fold enrichment, numbering: sequential-on-construct, sequence starts at 1
[1] = with both tetramers (double-negative gate, binds neither): HLA-A*02:01 with … and with …, gate DN: OPPOSITE: higher = more of the variant in the gate that binds neither peptide = LESS binding (or no expression; inferred). Fold enrichment of the CDR3 variant in one FACS gate of a two-tetram
[2] = with both tetramers (double-positive gate): HLA-A*02:01 with … and with …, gate DP: higher = more of the variant in the gate that binds both peptides. Fold enrichment of the CDR3 variant in one FACS gate of a two-tetramer stain. SP/DP/SW gates were expanded and re-sorted bef

Row | Variant | enrichment [1] | enrichment [2]
1 | […] (CDR3 as printed); L12V derived by comparing it with the table's wild-type CDR3 ASSPTGGSPSPLH | 0.702 | 0
2 | […] (CDR3 as printed); S8D derived by comparing it with the table's wild-type CDR3 ASSPTGGSPSPLH | 0.969 | 0
3 | […] (CDR3 as printed); H13W derived by comparing it with the table's wild-type CDR3 ASSPTGGSPSPLH | 0.345 | 0
4 | […] (CDR3 as printed); S2I derived by comparing it with the table's wild-type CDR3 ASSPTGGSPSPLH | 0.694 | 0
5 | […] (CDR3 as printed); P11S derived by comparing it with the table's wild-type CDR3 ASSPTGGSPSPLH | 1.52 | 0
6 | […] (CDR3 as printed); P4M derived by comparing it with the table's wild-type CDR3 ASSPTGGSPSPLH | 0.718 | 0
7 | […] (CDR3 as printed); P9Q derived by comparing it with the table's wild-type CDR3 ASSPTGGSPSPLH | 0.777 | 0
8 | […] (CDR3 as printed); G7E derived by comparing it with the table's wild-type CDR3 ASSPTGGSPSPLH | 1.08 | 0
9 | […] (CDR3 as printed); S8N derived by comparing it with the table's wild-type CDR3 ASSPTGGSPSPLH | 1.07 | 0
10 | […] (CDR3 as printed); H13L derived by comparing it with the table's wild-type CDR3 ASSPTGGSPSPLH | 0.846 | 0
11 | […] (CDR3 as printed); T5M derived by comparing it with the table's wild-type CDR3 ASSPTGGSPSPLH | 0.479 | 0
12 | […] (CDR3 as printed); S8I derived by comparing it with the table's wild-type CDR3 ASSPTGGSPSPLH | 1.23 | 0
13 | […] (CDR3 as printed); S10F derived by comparing it with the table's wild-type CDR3 ASSPTGGSPSPLH | 1.25 | 0
14 | […] (CDR3 as printed); T5K derived by comparing it with the table's wild-type CDR3 ASSPTGGSPSPLH | 0.965 | 0
15 | […] (CDR3 as printed); S10W derived by comparing it with the table's wild-type CDR3 ASSPTGGSPSPLH | 1.12 | 0
16 | […] (CDR3 as printed); S8A derived by comparing it with the table's wild-type CDR3 ASSPTGGSPSPLH | 0.6 | 0
17 | […] (CDR3 as printed); A1L derived by comparing it with the table's wild-type CDR3 ASSPTGGSPSPLH | 0.861 | 0
18 | […] (CDR3 as printed); P9D derived by comparing it with the table's wild-type CDR3 ASSPTGGSPSPLH | 0.994 | 0
19 | […] (CDR3 as printed); G7V derived by comparing it with the table's wild-type CDR3 ASSPTGGSPSPLH | 1.02 | 0
20 | […] (CDR3 as printed); S10G derived by comparing it with the table's wild-type CDR3 ASSPTGGSPSPLH | 0.33 | 0
21 | […] (CDR3 as printed); A1R derived by comparing it with the table's wild-type CDR3 ASSPTGGSPSPLH | 0.65 | 0
22 | […] (CDR3 as printed); P11W derived by comparing it with the table's wild-type CDR3 ASSPTGGSPSPLH | 0.701 | 0
23 | […] (CDR3 as printed); P11L derived by comparing it with the table's wild-type CDR3 ASSPTGGSPSPLH | 0.702 | 0
24 | […] (CDR3 as printed); S8W derived by comparing it with the table's wild-type CDR3 ASSPTGGSPSPLH | 0.85 | 0
25 | […] (CDR3 as printed); P11E derived by comparing it with the table's wild-type CDR3 ASSPTGGSPSPLH | 0.639 | 0
26 | […] (CDR3 as printed); G6R derived by comparing it with the table's wild-type CDR3 ASSPTGGSPSPLH | 0.796 | 0
27 | […] (CDR3 as printed); P11D derived by comparing it with the table's wild-type CDR3 ASSPTGGSPSPLH | 0.46 | 0
28 | […] (CDR3 as printed); L12F derived by comparing it with the table's wild-type CDR3 ASSPTGGSPSPLH | 1.49 | 0
29 | […] (CDR3 as printed); S2P derived by comparing it with the table's wild-type CDR3 ASSPTGGSPSPLH | 0.795 | 0
